Values of other authors, collected in article PMC6929323.

Biological target: UFD1L-NPLOC4 (Homo sapiens) (UniProt Q92890)
Assay: ITC

UniProt Q92890, sequence (Q92890 whole entry, chain 1 of 2): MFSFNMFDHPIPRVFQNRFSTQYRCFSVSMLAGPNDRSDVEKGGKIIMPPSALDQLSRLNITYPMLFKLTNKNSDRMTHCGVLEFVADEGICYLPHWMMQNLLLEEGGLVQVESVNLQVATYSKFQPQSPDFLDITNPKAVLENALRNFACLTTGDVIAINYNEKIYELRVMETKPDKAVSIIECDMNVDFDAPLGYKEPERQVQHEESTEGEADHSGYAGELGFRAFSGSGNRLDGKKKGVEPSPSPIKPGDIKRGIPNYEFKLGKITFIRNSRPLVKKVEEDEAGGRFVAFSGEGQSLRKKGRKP
UniProt Q92890, sequence (Q8TAT6 2-608, chain 2 of 2, further chain): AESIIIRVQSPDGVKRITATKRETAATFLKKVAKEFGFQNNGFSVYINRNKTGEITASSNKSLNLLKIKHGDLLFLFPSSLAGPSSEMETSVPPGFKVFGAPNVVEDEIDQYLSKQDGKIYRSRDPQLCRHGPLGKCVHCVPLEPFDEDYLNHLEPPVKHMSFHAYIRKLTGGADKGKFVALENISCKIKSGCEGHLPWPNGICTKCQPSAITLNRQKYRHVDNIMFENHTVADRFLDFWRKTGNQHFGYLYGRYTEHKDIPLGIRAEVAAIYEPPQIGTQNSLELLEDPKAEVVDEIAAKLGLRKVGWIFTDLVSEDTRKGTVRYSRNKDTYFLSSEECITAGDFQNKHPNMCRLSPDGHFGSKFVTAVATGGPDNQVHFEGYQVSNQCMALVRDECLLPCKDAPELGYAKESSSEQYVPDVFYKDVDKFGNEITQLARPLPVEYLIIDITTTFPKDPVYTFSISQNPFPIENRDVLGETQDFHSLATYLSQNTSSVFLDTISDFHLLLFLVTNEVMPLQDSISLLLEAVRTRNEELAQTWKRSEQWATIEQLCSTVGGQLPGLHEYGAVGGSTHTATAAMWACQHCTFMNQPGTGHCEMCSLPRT

p97 (from UniProt P55072)
Kd: 1700 nM
